Experimental data published in the DeepSol protein solubility set.

Test: soluble on expression in E. coli; label from the status in PepcDB or PDB records
For “MGSDKIHHHHHHMPTITAKIQIHVSDNQAESLKITTNAYRKACNWLSKHIFETKNLNQVNLNNLYYSDLRNQFRLKSQMAQSVMKTVIARYKSAKSNGHEWSLIDFKLAEYDLVWNRDYSLTKNQFSVNTLEGRLKLNYERKAMKKYFNSTWKFGTAKLVHKYKKWFLHIPMTKEYQTLDFADVNNIVGVDLGINFLATTYDSQSKTTFYNGNIVKHKRGKFKATRKQLQTRQTPSSRKKIKQIGSRENRYVTDVNHQITKALVEAYPRGTMFVLEDLTGVRSATEKVRVKNRYVSVSWAFYQFRQMLEYKAELNGQKVIVVDPKYTSQTCPKCGNIEKANRNKKLHTFKCKNCQYQSNDDRISAMNLHRKGIKHISVVTTGV”, the “soluble on expression in E. coli” value was “not soluble”. With “MAGDPMGNNNSTKESTHDNHSDSSTHEEMDHSGSADVPEGLQESKNPKYKVGSQVIINTSHMKGMKGAEATVTGAYDTTAYVVSYTPTNGGQRVDHHKWVIQEEIKDAGDKTLQPGDQVILEASHMKGMKGATAEIDSAEKTTVYMVDYTSTTSGEKVKNHKWVTEDELSAKLEHHHHHH” the “soluble on expression in E. coli” value was “soluble”. For “GPGSMIRTTAAAARLPQSTQGWVPLMRRALEFPIDSVTFPSHFYLHTVTNGTASTVGFSPQKEPVGLTALRQCAVLVLLSPAATGNGFQDMCITLTKRTATMGSHKSEMSFPGGHVDDDETLRNAAQRETLEEVGLPPSEYEIIGSLTPITTNALSARVTPFVAVATSPAQPYRASPVEVDSIHYLHMSMLLLSASTGHARVIKYRSFTSDRPCFFPCFFASPAQTVVSSAVCRSPKATGVADDCGFDPMLPEDF”, the “soluble on expression in E. coli” value was “not soluble”. With “MGSDKIHHHHHHMKRLDGIPESMLIPLIARAKEYEYEKPIIKDALSKKIFDGLDDIYKNVTCDDMSQIGISIRSVIIDSVTKRLIKDNKNLIVINIGCGLDTRFQRFNNEKISWIDLDVPESIEIRKTFFKETDSYKMIAKSMLDYSWIEDVINYKFFNSKSNILFIFEGVLMYFDESVMTKLLHTIIKKFGDHNLTFAIEFCSKTIANNTKRHKSVSKLSSQPVFKYGYNDLNELDKVLPNKMKVINEYNYFDYHKKRWGLFGYCRYIPYLKKRLNNKIVIMEYKPAKLITHN” the “soluble on expression in E. coli” value was “not soluble”. For “MSLRESCKKDLSAGESIRKTRRISVMRSASGNETFGVICRTLYGDFIQFSTKQIVVMSTLFRSLSMSSSAGDSNLFTGNSALKNDSVVAGKPEWAQNSRRRVIPSHLAPKKKTGFHLSSSVSTRKSGGDKKDVFQAENGGEFNLLSFGTNQKRLGTGSFDRVNANSSFFDTSFAGDLTRFDDAVNSSKTQDDFLVYTNDEDMPPSRSIYDLNDEVLISLKSLQNNNEDKTSDANDPKNFRNIFVRDAPKASPSEDSNDQAKQLSNGELAILVFGYPETMANQVIAYFQEFGTILEDFEVLRKPQAMTVGLQDKQFVPIFSGNSWTKITYDNPASAVDALLENGAVFNGVLLGVIPYTKDAVERLQKRKLTSSEDIGSGITTAAAEGHHHHHH”, the “soluble on expression in E. coli” value was “soluble”. In the case of “MGSDKIHHHHHHMSDVDTHPIDRGAGGHNPQKPIRVAQIVGKMVGGGVEAVVMNYYRHIDRSKVQFDFLVDEDSTRVPEEEITSLGGRVFRIPPYQHPIRYRRELIRLMREQQWPIVHSNINTLSVFPLSAAKKVGVPVRIAHSHSTMGKGEFAKNVMKLVLRPFANVYPTVRFACSRYAGKWLFGKNADFTVIPNAIELDKFRFNTEMRKQTRKELGISDDTFLIGHVGRFMPQKNQTFLVDVLAGLLPKRPDAMLAFVGDGPDRTAVQQHVEELGMADHVLFLGQRSDVNRLYQAFDAFCLPSLYEGLGIVAVEAQVADLPCLLSDVVPSEADVTASSYFLQITDVKPWIETLSNLHSSKRSDQISGDIEEYDIQRCANSLVKKYESFICK”, the “soluble on expression in E. coli” value is reported as “not soluble”. With “MGSDKIHHHHHHMHFLDDSLLPENQEKLVIQVAPYGPQWLPGDSDDIPVTMDEQVQKAVDCYNAGATVLHVHVREADGKGSKRLSMFNEMLARLREAVPGMVLQVGGSISFAPENDNQAAKWLNDDTRHMLAELSPRPDQVTVAINTSQMNVMELMTEADVAGTSLTNPALQAAYRDMIVPSNPSWHVEHIKRLVANGIQPHFMLGNLTQLETVERLIRRGVYTGPLVLNYVAIGGGAAGLHPADMVEFARRTPDGAVLTVETLNRNVVPLNTMAIAMGLHVRVGIEDTLYGPDGKRATSVQQIEKMVNIARELNREIASGTDAHRIYQTGTRWSSTEETLNRLGMVPNRQPEQRGVPPRKAA” the “soluble on expression in E. coli” value was “not soluble”. For “QKSNRKDYSLTMQSSVTVQEGMCVHVRCSFSYPVDSDTDSDPVHGYWFRAGNDISWKAPVATNNPAWAVQEETRDRFHLLGDPQTKNCTLSIRDARMSDAGRYFFRMEKGNIKWNYKYDQLSVNVTALTHRP”, the “soluble on expression in E. coli” value was “soluble”. In the case of “MLKKRFYILLFFCLLLGGNVNSSTVDKGDNNAPFENKRTETDYLPIADPFVMLYNNKYYAYGTGGTVNEGFACFSSDDLKNWKRERQALSADDSYGKWGFWAPEVYYIQSKKKFYMFYSVEEHICVATSDSPVGPFRQESKQPIWEEKSIDTSLFIDDDGTPYLYFVRFTDGNVIWVAQMTDDLMKIKKETLSECIKAEEPWELLQAKVAEGPSVLKKKGMYYLIYSANHYQNKGYGVGYATSKSPMGPWTKYDKNPLLQGDESTGLVGTGHGAPFQCKDGSWKYIFHAHWNKEKIHPRTSYFKDFTISKQGVVSITGKVIKPKVIK”, the “soluble on expression in E. coli” value is reported as “not soluble”. With “MCLVKDKLKDIISVKSALSFSLKGDFDCPLEENSLFKALQILKNFLKSKNFSHSVIKSLDTLAIEVEKNIPTQAGLGGGSTDAGGLLYHLNQIFDWRLSLEELYSMGSLVGADTNFFISQYKSTNATSYGEVIENFEEEPLENRLEIYAPNHVFCSTKAVYQAYKPETCFSQAKEWLKKPSLECLKTYDRNGLNDLLKPALLTNQALKDIESELGKEWFFSGSGSAFFRLKPMQKGGELEHHHHHH” the “soluble on expression in E. coli” value was “not soluble”. In the case of “GASIVGSWVEPVPGLEGQVQGIKMEEGGVASSVNMATLVYESWKQEGTKLILTGKSIGNGQTIEFVDTMDIKRLTADSLVLDNQGMEIRYAKQK”, the “soluble on expression in E. coli” value is reported as “soluble”. For “MGFYQGPDNRKITGGLKGKHRDKRKYEIGNPPTFTTLSAEDIRIKDRTLGGNFKVRLKYTTTANVLDPATNTAKKVKILEILETPANKELARRGIIIRGAKIRTEAGLAVVTSRPGQDGVINAVLLKNESQRSLEHHHHHH”, the “soluble on expression in E. coli” value was “not soluble”. For “RIRKIIAGYQTELEASQEQEKKARQEKDELMRNMAHDLRTPLTGVMTYVDVMKLENEAYAENMKNLNFISEKVLDIRTQVDNLLDFSIAGSQRPVELDASMDVEYIFGDYLSDVCAQLMKSNYEVDAEGISFKQVKVAVNMAFLTRIFSNLTDNIYKYADNKKPVVMKTAFTKKTFSVEIGNGVCDNKTLLKSAGIGLKSVDAMMQRMNGSMSFKREHGKFWVKLEFPIV”, the “soluble on expression in E. coli” value was “not soluble”. With “MGSDKIHHHHHHMSDKFGEGRDPYLYPGLDIMRNRLNIRQQQRLEQAAYEMTALRAATIELGPLVRGLPHLRTIHRQLYQDIFDWAGQLREVDIYQGDTPFCHFAYIEKEGNALMQDLEEEGYLVGLEKAKFVERLAHYYCEINVLHPFRVGSGLAQRIFFEQLAIHAGYQLSWQGIEKEAWNQANQSGAMGDLTALQMIFSKVVSEAGESE” the “soluble on expression in E. coli” value was “not soluble”. In the case of “MAMQFVMRLAREFRRADWRRMLSDMSATELGEWGDYFRMQSFSDVWMDAQFASLKALIVRMVSGSSDAAVADFSLLPEENGIPERTDEELMHLGEGISGGVRYGPDSQPGHLEHHHHHH”, the “soluble on expression in E. coli” value is reported as “not soluble”. With “MPSRQLEDPGAGTPSPVRLHALAGFQQRALCHALTFPSLQRLVYSMCSLCQEENEDMVPDALQQNPGAFRLAPALPARPHRGLSTFPGAEHCLRASPKTTLSGGFFVAVIERVEMPT” the “soluble on expression in E. coli” value was “not soluble”. In the case of “STRFLEKRHKKKKATNKERILSYKPIHAIEQENSFRSSRCSNQTVEVSAVEDSRSALVGFFESNEPSESVTLKGKRERQLLASKTLISQLKEENCRLKERLNEVKDQLELKEKIALVQQENNDLEAEVLEWKAKFYESESEKERILASRSRPKDGYEIVQESLAQQPGTTSFYDYKFRQLVHKLTRMNAIHSKHNDKEYHKCDIVNESKDRSITFELFIDEEQEEIEYVPVQLNGVSQKLPSYLQDNISFDVQNAPIFFTKIMHSLFSK”, the “soluble on expression in E. coli” value is reported as “soluble”. In the case of “MGHHHHHHSHMDGTRTSLDIEEYSDTEVQKNQVLTLEEWQDKWVNGKTAFHQEQGHQLLKKHLDTFLKGKSGLRVFFPLCGKAVEMKWFADRGHSVVGVEISELGIQEFFTEQNLSYSEEPITEIPGTKVFKSSSGNISLYCCSIFDLPRTNIGKFDMIWDRGALVAINPGDRKCYADTMFSLLGKKFQYLLCVLSYDPTKHPGPPFYVPHAEIERLFGKICNIRRLEKVDAFEERHKSWGIDCLFEKLYLLTEK”, the “soluble on expression in E. coli” value is reported as “soluble”. With “METFHWKVRPDMNVVSEPKVVTVKLGDGYEQRRAAGLNNQLSTYSVTIRVRKGEHPSLKAFLERHGGVRAFQWTPPYDWKLIRVVCRKWSASVGALWVTVTADFEQVVN” the “soluble on expression in E. coli” value was “not soluble”. With “MSLKQSHIRNFAIIAHIDHGKSTLADQIMSLTQTVSAREQHAQLLDDMTVEQAHGVTVKARTVRNYYQADDGQEYEYNLIDTPGHVDFNYEVAKSLAATEGAILLVDATQGVQAQTIANYRIAKQRQLTLIPVLNKVDLPSADIDAALAQLNDLDSAFTPEQVLQISAKTGQGVPAVLEAIKQRLPAPQGDLHQPLKALVFDSLYDPYQGVIAYVRLIDGQLKSQQALCLMQGQQDFNGKAIGVFAPQMHPQESLSAGDVGYVVTGIKDPRKVRVGDTLTSVATPTQRPLAGYQPAKSMVFAGLYPKNNDYPALKEAVQKLNLNDPSFTYVEERSEALGVGFRCGFLGTFHLQIIRERLHDEYGVDVLTTAPNVTYHVTLTNGQQVIVNNPVQFPAFSLIKEVTEPFMKAEITMPADNLNAVLKLAEQHKGTLIDLANSGDLIVASLKIPLSEIAYHFFSELKSVSHGFASLSTAFMANEVSDLVKVEVDINEGHHHHHH” the “soluble on expression in E. coli” value was “soluble”. In the case of “MEKSSSNFIQNGKRDHGGKLRQYNYKLEEAEYRYFTEERLFYRRRNPVEKIAQRIPKPQIEGTFTWSDELRCNYDGNTQFLPVEALEGCLPLEKLNQHLKPGFRLEVVVRPSLDPSITTKSPEIRWFGEVTAVCGFYVAIKFVGELNRRPCWFHMLSEDIFDIGSGLKQDPAMKWLQYRPLSLLKPMQCPKFWRRGSTPAPPVPRPTEEILDEFQAELHENRISEPKIFDQLRHLAHRPSRFRLNQRVELLNYLEPTEIRVARILRILGRRLMVMVTAQDYPEDLPSVEAKDRQVQHENVEFWVDESSFFLFPVGFAMINGLRTKATEGYLEHSRRIAEGSGTEKLNLLKVGQKFELLDPLSDLRQSFCVATIRKICKTPGFLIISPDETESDDESFPIHIDNHFMHPVGYAEKFGIKLDRLAGTEPGKFKWEGYLKEKQAEKIPDEMLRPLPSKERRHMFEFGRVLEAVGQNETYWISPASVEEVHGRTVLIEFQGWDSEFSELYDMDSHDLLPAGWCEFFNFKLRHPVLPVNDPNAENGEYD”, the “soluble on expression in E. coli” value is reported as “not soluble”. With “MDMYSMKISEGVERIDGVTANSYLLTLDGKNILIDTGTAGGGKKIIDYFNKNGTKPDYVIVTHHHADHVGGLKEISERFNPEIYVPDLEMKIIRGEEDPPKPRSFFGRMITGMLKFEPVKDVKPVSKASIPGIEEMATPGHTIGSTSYIVEDLHILFSGDAAVESGGELKINKSFSYEINSAERSLEIIKGMKGYLVLPGHGDKVQLLEHHHHHH” the “soluble on expression in E. coli” value was “soluble”. In the case of “MSLAKNVNASVEETFKKSGIPVKVDKSNGQVTFGEKTMFDVDSDVLKPEAKEMLKMFVPKYIETIYKDYGDYISKIVIEGHTDDVGSYIYNLDLSQRRAYSVAKFIVGDEIGDYKYKDKVTKHIIAIGRSKAELIKNGDNSVNRDASRRVELKYEININQNKEGHHHHHH”, the “soluble on expression in E. coli” value is reported as “soluble”.
